Test [1] concerns the target α5β1 integrin on U87MG cells (human, UniProt P08648 42-1049; P05556 21-798). Description: cell-based or functional assay.
Test [2] addresses T1, purified recombinant human α5β1 integrin heterodimer, 6×His tagged (rh-α5β1); Acro Biosystems, cat. no. … (human, UniProt P08648 42-995; P05556 21-728).
T1 construct: bought recombinant heterodimer; also called rh-α5β1-6×His tagged protein; His-tagged-α5β1
The experiment in a line: BLI (Octet), supernatant mAb on anti-mouse IgG Fc sensor, 20 nM rh-α5β1. An excerpt:
Anti-Mouse IgG Fc biosensors were used to load each clone supernatant. Assay steps were as follows: Sensor Check (30s)-->Load Ab (700s)-->Quench (480s)-->Baseline(480s)-->Ab Assoc. (600s)-->Dissoc. (600s).

Test [3] deals with T2, α5β1 integrin on cells (PMA-activated K562 cells; U87MG cells) (human, UniProt P08648 42-1049; P05556 21-798).
T2 construct: Endogenous integrin of human cell lines; also called cellular α5β1 integrin; cell surface α5β1 integrin receptors
The experiment in a line: flow cytometry on PMA-activated K562 cells, hybridoma supernatant. As for the experimental part:
Four weeks later cells from spleens and draining lymph nodes were fused to create hybridomas. […] In short, hybridoma supernatants were incubated with the activated K562 cells for 20 minutes, washed, then incubated with a fluorescent conjugated detecting antibody for 20 minutes, washed, resuspended in 7-Aminoactinomycin D, and Mean Fluorescence Intensity (MFI) measured on a Guava cytometer (Luminex Corporation, Austin, TX 78727).

Where a chain is given by its changes, count along the chain named.

T1 sequence (P08648 42-995 limits assumed, form in doubt, chain 1 of 2): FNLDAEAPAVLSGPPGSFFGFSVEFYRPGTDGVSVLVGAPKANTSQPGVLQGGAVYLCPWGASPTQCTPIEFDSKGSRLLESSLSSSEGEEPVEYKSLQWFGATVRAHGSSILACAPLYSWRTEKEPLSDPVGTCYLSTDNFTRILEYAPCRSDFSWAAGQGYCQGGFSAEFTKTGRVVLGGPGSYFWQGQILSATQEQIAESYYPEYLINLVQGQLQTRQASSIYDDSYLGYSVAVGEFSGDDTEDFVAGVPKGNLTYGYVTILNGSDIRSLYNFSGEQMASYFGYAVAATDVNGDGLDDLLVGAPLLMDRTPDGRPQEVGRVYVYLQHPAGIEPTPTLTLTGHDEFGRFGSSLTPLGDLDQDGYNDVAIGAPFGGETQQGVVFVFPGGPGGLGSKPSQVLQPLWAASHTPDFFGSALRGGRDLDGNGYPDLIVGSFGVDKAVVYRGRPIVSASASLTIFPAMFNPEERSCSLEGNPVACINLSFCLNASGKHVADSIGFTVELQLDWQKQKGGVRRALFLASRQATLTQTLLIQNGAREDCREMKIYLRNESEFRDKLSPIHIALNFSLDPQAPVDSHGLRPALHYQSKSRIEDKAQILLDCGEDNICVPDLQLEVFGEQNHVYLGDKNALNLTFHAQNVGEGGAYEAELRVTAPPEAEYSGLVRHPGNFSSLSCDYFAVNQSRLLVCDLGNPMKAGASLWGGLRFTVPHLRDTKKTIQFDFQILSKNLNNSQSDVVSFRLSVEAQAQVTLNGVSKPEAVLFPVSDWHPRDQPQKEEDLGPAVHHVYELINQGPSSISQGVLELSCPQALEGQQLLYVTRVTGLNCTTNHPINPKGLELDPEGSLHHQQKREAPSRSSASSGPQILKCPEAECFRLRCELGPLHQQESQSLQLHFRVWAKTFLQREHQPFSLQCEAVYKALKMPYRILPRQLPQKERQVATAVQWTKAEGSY
T1 sequence (P05556 21-728 limits assumed, form in doubt, chain 2 of 2): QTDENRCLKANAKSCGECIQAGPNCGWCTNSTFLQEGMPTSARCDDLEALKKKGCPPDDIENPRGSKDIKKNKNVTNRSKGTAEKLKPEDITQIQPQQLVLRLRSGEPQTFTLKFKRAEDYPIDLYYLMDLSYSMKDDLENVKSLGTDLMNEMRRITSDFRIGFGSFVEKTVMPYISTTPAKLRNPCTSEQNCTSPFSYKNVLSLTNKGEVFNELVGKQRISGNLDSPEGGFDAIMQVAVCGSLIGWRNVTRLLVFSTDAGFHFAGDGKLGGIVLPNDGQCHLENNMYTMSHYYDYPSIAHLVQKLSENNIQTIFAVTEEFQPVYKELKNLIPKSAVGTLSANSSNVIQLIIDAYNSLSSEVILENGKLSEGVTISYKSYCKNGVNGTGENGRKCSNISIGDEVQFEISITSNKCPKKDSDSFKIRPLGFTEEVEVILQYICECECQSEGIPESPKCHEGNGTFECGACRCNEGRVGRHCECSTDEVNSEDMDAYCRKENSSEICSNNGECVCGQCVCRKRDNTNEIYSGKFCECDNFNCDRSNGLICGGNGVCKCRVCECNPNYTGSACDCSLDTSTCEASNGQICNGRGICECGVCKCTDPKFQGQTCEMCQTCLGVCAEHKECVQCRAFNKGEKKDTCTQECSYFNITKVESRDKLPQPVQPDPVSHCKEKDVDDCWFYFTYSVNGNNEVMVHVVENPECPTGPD
T2 sequence (P08648 42-1049 limits assumed, chain 1 of 2): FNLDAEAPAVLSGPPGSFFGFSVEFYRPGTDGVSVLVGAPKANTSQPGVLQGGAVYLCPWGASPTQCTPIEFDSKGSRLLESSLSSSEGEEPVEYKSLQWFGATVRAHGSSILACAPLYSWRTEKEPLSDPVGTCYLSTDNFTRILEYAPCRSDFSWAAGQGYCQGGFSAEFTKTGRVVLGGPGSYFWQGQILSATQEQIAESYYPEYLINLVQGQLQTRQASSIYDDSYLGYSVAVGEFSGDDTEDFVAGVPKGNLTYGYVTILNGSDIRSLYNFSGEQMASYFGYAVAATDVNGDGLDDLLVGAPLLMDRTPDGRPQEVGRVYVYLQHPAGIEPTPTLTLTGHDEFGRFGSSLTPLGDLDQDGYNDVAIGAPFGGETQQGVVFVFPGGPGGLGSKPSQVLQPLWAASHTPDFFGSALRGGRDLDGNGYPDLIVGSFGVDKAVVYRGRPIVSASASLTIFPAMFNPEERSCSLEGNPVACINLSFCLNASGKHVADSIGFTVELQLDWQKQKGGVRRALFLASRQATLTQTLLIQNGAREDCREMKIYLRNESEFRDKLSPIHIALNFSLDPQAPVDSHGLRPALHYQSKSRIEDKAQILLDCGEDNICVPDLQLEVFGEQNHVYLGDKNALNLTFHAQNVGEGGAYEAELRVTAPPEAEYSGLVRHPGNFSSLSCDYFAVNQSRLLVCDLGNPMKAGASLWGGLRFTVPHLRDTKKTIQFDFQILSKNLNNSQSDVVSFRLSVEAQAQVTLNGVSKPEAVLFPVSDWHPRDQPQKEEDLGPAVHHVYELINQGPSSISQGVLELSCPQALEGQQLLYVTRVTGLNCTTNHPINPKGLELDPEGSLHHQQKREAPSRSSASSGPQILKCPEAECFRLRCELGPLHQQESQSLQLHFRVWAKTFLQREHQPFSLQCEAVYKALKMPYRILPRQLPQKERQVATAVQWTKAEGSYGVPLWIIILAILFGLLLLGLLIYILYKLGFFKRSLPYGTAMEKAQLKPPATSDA
T2 sequence (P05556 21-798 limits assumed, chain 2 of 2): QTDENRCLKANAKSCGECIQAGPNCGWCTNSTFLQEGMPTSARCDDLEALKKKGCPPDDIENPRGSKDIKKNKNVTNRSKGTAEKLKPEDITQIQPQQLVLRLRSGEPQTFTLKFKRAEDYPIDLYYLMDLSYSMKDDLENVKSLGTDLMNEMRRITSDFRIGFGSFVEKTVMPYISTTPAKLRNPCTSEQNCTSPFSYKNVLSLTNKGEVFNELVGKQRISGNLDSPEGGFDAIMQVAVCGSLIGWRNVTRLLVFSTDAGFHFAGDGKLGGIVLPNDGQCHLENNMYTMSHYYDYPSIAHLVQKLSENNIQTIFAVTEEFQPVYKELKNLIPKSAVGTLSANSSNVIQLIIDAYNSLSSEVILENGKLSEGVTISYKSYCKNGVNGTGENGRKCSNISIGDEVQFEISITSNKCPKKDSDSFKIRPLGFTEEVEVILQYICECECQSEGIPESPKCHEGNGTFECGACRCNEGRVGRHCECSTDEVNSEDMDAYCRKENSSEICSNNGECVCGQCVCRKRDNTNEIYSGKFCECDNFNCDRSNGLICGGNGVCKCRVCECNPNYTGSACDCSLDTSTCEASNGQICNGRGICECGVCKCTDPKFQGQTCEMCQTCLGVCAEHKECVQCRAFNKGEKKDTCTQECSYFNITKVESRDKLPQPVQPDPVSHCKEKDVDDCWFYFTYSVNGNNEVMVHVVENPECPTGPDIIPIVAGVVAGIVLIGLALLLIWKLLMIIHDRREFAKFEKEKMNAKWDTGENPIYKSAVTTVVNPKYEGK

On to IgG4 Isotype (antibody), for which, in test [1], the Cell Counts (Curve Bottom) was 32000 cells and the Cell Counts (Curve Top) turned out to be 50000 cells.

B1: A-4G02 (antibody, V domains shown)
VH: QVQLKESGPGLVAPSQSLSITCTISGFSLTSYGVHWVRQPPGKGLEWLVVIWSDGSTTYNSTLKSRLSISKDNSKSQVFFKMNSLQTDDTAMYYCARHYDYDGDWFAYWGQGTLVTVSA
VL: QIVLTQSPAIMSASLGERVTMTCTASSRVSSNSLHWYQQKPGSSPKLWIYSTSNLASGVPARFSGSGSGTSYSLTISSMEAEDAATYYCHQYLRSPPTFGGGTKLEIK
notes: mouse hybridoma antibody
As to B1, in test [2], the Kd was determined as 1.23 nM, the koff came out at 0.000396 s⁻¹ and the kon was determined as 321000 M⁻¹ s⁻¹.

B2: A2-8H11 (antibody, V domains shown)
VH: QVQLKESGPGLVAPSQSLSITCTISGFSLTTYGVHWVRQPPGKGLEWLVVIWSDGSTTYNSALKSRLNITKDNSKSQVFLKMNSLQTDDTAMYYCVRHGGLLRRDAMDYWGQGTSVTVSS
VL: B1 VL with R28S, L34F, I49L
notes: mouse hybridoma
Molecule B2 yielded an MFI in test [3] of 4370.

B3: A-11G01 (antibody, V domains shown)
VH: B2 VH
VL: B1 VL with R28S, L34F, I49L
notes: mouse hybridoma
B3 gave an MFI in test [3] of 1610.

B4: A2-6C10 (antibody, V domains shown)
VH: B2 VH
VL: B1 VL with R28S, L34F, I49L
notes: mouse hybridoma
B4 showed an MFI in test [3] of 2120.

B5: A-3A08 (antibody, V domains shown)
VH: B2 VH
VL: B1 VL with R28S, L34F, I49L
notes: mouse hybridoma antibody
Consider B5, for which, in test [2], the Kd worked out at 5.08 nM, the koff stood at 0.00124 s⁻¹ and the kon was 244000 M⁻¹ s⁻¹.

B6: A2-9A11 (antibody, V domains shown)
VH: B2 VH
VL: B1 VL with R28S, L34F, I49L
notes: mouse hybridoma
In test [3], B6 yielded an MFI of 3400.

B7: A-11G01 (antibody, V domains shown)
VH: B2 VH
VL: B1 VL with R28S, L34F, I49L
notes: mouse hybridoma antibody
Take B7: in test [2], the Kd was found to be 5.03 nM, the koff stood at 0.00132 s⁻¹ and the kon worked out at 261000 M⁻¹ s⁻¹.

B8: A-15B08 IgG4 Chimera (antibody, V domains shown)
VH: B1 VH
VL: B1 VL
In the case of B8, in test [1], the “% Inhibition” value is 86%, the “Cell Counts (Curve Bottom)” value was 4780 cells and the “Cell Counts (Curve Top)” value came out at 33800 cells.

B9: C-8G11 (antibody, V domains shown)
VH: QVQLKESGPDLVAPSQSLSITCTVSGFSLTDYGVHWVRQPPGKGLEWLVVIWSDGSTTYNSALKSRLSITKDTSKRQVFLKMNSLQTDDTAMYYCARHAPSFIRYGSRYDALDYWGQGTSVTVSS
VL: B1 VL with M21L, R28S, S30T, N32S, S33F, L93H
notes: mouse hybridoma antibody
Consider B9, for which, in test [2], the Kd was 0.442 nM, the koff came to 0.00012 s⁻¹ and the kon was 271000 M⁻¹ s⁻¹.

B10: A-7D06 (antibody, V domains shown)
VH: B2 VH
VL: B1 VL with R28S, L34F, I49L
notes: mouse hybridoma
B10 gave an MFI in test [3] of 742.

B11: A-15B08 (antibody, V domains shown)
VH: B1 VH
VL: B1 VL
notes: mouse hybridoma antibody (supernatant, or purified by Protein A); NST N-glycosylation site in CDRH2; also called antibody designated A-15B08
In test [3], B11 had an MFI of 1390.

B12: C-14D12 (antibody, V domains shown)
VH: B9 VH
VL: B1 VL with M21L, R28S, S30T, N32S, S33F, L93H
notes: mouse hybridoma antibody (supernatant, or purified by Protein A); also called antibody designated C-14D12; C-14D2
As for B12, the MFI in test [3] turned out to be 2020.

B13: A-7D06 (antibody, V domains shown)
VH: B2 VH
VL: B1 VL with R28S, L34F, I49L
notes: mouse hybridoma antibody
As to B13, in test [2], the Kd stood at 4.75 nM, the koff stood at 0.00128 s⁻¹ and the kon is 270000 M⁻¹ s⁻¹.

B14: C-8G11 (antibody, V domains shown)
VH: B9 VH
VL: B1 VL with M21L, R28S, S30T, N32S, S33F, L93H
notes: mouse hybridoma
With B14, in test [3], the MFI came out at 2690.

B15: A-4G02 (antibody, V domains shown)
VH: B1 VH
VL: B1 VL
notes: mouse hybridoma
The molecule B15 gave an MFI in test [3] of 1980.

B16: C-14D12 IgG4 Chimera (antibody, V domains shown)
VH: B9 VH
VL: B1 VL with M21L, R28S, S30T, N32S, S33F, L93H
As to B16, in test [1], the “% Inhibition” value came to 78%, the “Cell Counts (Curve Bottom)” value came to 8040 cells and the “Cell Counts (Curve Top)” value was 37200 cells.

B17: A-3A08 (antibody, V domains shown)
VH: B2 VH
VL: B1 VL with R28S, L34F, I49L
notes: mouse hybridoma
Molecule B17 had an MFI in test [3] of 1180.

B18: A2-3B06 (antibody, V domains shown)
VH: B2 VH
VL: B1 VL with R28S, L34F, I49L
notes: mouse hybridoma antibody (supernatant, or purified by Protein A); also called antibody designated A2-3B06
In the case of B18, in test [3], the MFI was 2140.

B19: A2-5D10 (antibody, V domains shown)
VH: B1 VH with F80L
VL: B1 VL with V3L, R28S, N32R, S33C, S64R, L93Y
notes: mouse hybridoma antibody (supernatant, or purified by Protein A); also called antibody designated A2-5D10
The molecule B19 returned an MFI in test [3] of 1890.

B20: A-14G08 (antibody, V domains shown)
VH: QVQLQQPGAELVKPGASVKLSCKASGYTFTIYWINWVKQRPGQGLEWIGKIYPGSISTDYNEKFKSKATLTVDTSSSTAYMQLSSLTSDDSAVYYCAITGTGGLAYWGQGTLVTVSA
VL: ENVLTQSPAIMSASLGEKVTMTCRASSSVNYMYWYQQKSDASPKLWIYFTSSLAPGVPGRFSGSGSGNSYSLTISTMEGEDAATYYCQQFTTSPFTFGSGTKLEIK
notes: mouse hybridoma antibody
For B20, in test [2], the equilibrium dissociation constant (Kd) was found to be 0.845 nM, the koff was determined as 0.000198 s⁻¹ and the kon was 234000 M⁻¹ s⁻¹.

B21: A-15H11 (antibody, V domains shown)
VH: B20 VH
VL: B20 VL
notes: mouse hybridoma antibody
Turning to B21, in test [2], the Kd is 0.901 nM, the koff was determined as 0.000193 s⁻¹ and the kon worked out at 215000 M⁻¹ s⁻¹.

B22: A-15H11 (antibody, V domains shown)
VH: B20 VH
VL: B20 VL
notes: mouse hybridoma
Turning to B22, the MFI in test [3] came out at 6570.

B23: A-14G08 (antibody, V domains shown)
VH: B20 VH
VL: B20 VL
notes: mouse hybridoma
For the molecule B23, the MFI in test [3] was found to be 4210.

B24: A2-7A05 (antibody, V domains shown)
VH: B20 VH
VL: B20 VL
notes: mouse hybridoma antibody (supernatant, or purified by Protein A); also called antibody designated A2-7A05; A-7A05
The molecule B24 came in with an MFI in test [3] of 5500.

B25: A2-7F01 (antibody, V domains shown)
VH: B20 VH with K50N, I56S, D59N, S66T, L104F
VL: B20 VL with T22S, G59T, Y70F, T76S, F90L, T92G, K102R
notes: mouse hybridoma antibody (supernatant, or purified by Protein A); also called antibody designated A2-7F01
The molecule B25 displayed an MFI in test [3] of 6260.

These data come from patent US20240279345A1, “ALPHA 5 BETA 1 INTEGRIN BINDING AGENTS AND USES THEREOF” (PASITHEA THERAPEUTICS CORP., priority 2021, published 2024).
